According to patent US20260274955A1 (JANUX THERAPEUTICS, published 2026):

These binders were tested against T1, Anti-CD28 Fab (SEQ ID NOs: 202, 203) (assay: phage ELISA on captured biotinylated Fab;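 further: wells preblocked with or without CD28 antigen, then clonal phage supernatant added briefly, washed, and bound phage read out by ELISA using HRP-linked anti-M13 antibody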).
T1 construct: biotinylated and captured on neutravidin coated plates in the phage ELISA
T1 sequence (VH, as listed by the source, chain 1 of 2): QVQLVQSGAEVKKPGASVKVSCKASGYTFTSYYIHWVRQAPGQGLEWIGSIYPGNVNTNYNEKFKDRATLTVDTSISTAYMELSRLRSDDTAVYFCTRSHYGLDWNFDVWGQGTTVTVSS
T1 sequence (VL, as listed by the source, chain 2 of 2): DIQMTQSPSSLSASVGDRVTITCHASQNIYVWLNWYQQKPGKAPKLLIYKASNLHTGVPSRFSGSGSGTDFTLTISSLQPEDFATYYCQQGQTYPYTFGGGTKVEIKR
Description: (§1) Clonal phage were harvested as crude supernatants and screened via standard ELISAs. […] Prior to the addition of clonal phage, wells were incubated with blocking buffer and CD28 antigen or blocking buffer alone. Without washing or aspirating, clonal phage supernatants were then added to the wells and incubated for a short time. Wells were then washed followed by detection of bound phage using a horse radish conjugated anti-M13 antibody.

Going from YCDGHVAEYRDKCL [Phage-173] to YCDGHLKEYQEKCL [Phage-299], the “Anti-CD28 Fab signal” value falls from 2.17 to 1.91.

Compared with YCDGHLPEYLGKCL [Phage-274], YCAGHSPEYMTKCL [Phage-171] is higher in “Anti-CD28 Fab signal” value: 1.96 for the first, 2.17 for the second.

Going from YCEGHSPEYMTKCL [Phage-251] to YCEGHRPEYMQKCL [Phage-249], the “Anti-CD28 Fab signal” value rises from 2.02 to 2.03.

YCEGHLSQYMEKCL [Phage-281] and YCDGHLVEYMSKCL [Phage-280] are the same in “Anti-CD28 Fab signal” value: 1.95 for the first, 1.95 for the second.

Going from YCAGHAPEYMQKCL [Phage-174] to YCAGHAPEYIQKCL [Phage-172], the “Anti-CD28 Fab signal” value rises from 2.16 to 2.17.

Compared with YCAGHLPEYMMKCL [Phage-248], YCEGHSLEYMGKCL [Phage-253] is lower in “Anti-CD28 Fab signal” value: 2.03 for the first, 2.02 for the second.

Compared with YCDGHMPEYMWKCL [Phage-170], YCDGHAPEYMEKCL [Phage-254] is lower in “Anti-CD28 Fab signal” value: 2.17 for the first, 2.01 for the second.

Going from YCDGHLEQYRAKCL [Phage-273] to YCEGHLSEYMAKCL [Phage-284], the “Anti-CD28 Fab signal” value falls from 1.96 to 1.94.

First: YCDGHSAEYMWKCL [Phage-179]
Second: YCDGHSAEYMQKCL [Phage-279]
The “Anti-CD28 Fab signal” value of the first is higher: 2.15 for the first, 1.95 for the second.

First: YCDGHSALYMWKCL [Phage-276]
Second: YCDGHSSEYMIKCL [Phage-277]
The “Anti-CD28 Fab signal” value of the first is higher: 1.96 for the first, 1.95 for the second.

Compared with YCDGHVAEYMAKCL [Phage-177], YCAGHLEIYMNKCL [Phage-283] is lower in “Anti-CD28 Fab signal” value: 2.16 for the first, 1.94 for the second.

Compared with YCEGHAREHMAKCL [Phage-250], YCDGHSPEHIRKCL [Phage-282] is lower in “Anti-CD28 Fab signal” value: 2.02 for the first, 1.94 for the second.

Going from YCDGHSHEYMEKCL [Phage-257] to YCDGHSNEYMAKCL [Phage-175], the “Anti-CD28 Fab signal” value rises from 2.01 to 2.16.

Compared with YCDGHSLEYMAKCL [Phage-180], YCDGHEAQYMSKCL [Phage-256] is lower in “Anti-CD28 Fab signal” value: 2.15 for the first, 2.01 for the second.

Going from YCDGHLIEYMYKCL [Phage-278] to YCDGHTQEYMAKCL [Phage-168], the “Anti-CD28 Fab signal” value rises from 1.95 to 2.17.

Going from YCDGHSPMYIGKCL [Phage-247] to YCEGHLPIYLSKCL [Phage-285], the “Anti-CD28 Fab signal” value falls from 2.03 to 1.94.

Compared with YCAGHSVEYMAKCL [Phage-275], YCDGHLPEYMWKCI [Phage-178] is higher in “Anti-CD28 Fab signal” value: 1.96 for the first, 2.15 for the second.

Going from YCEGHAPQYIAKCL [Phage-246] to YCDGHMGVYYWKCL [Phage-255], the “Anti-CD28 Fab signal” value falls from 2.03 to 2.01.

First: YCEGHSIQYMAKCL [Phage-252]
Second: YCEGHLPQYLQKCL [Phage-176]
The “Anti-CD28 Fab signal” value of the first is lower: 2.02 for the first, 2.16 for the second.

First: YCEGHLPVYMWKCL [Phage-169]
Second: YCQGHLPEYMSKCL [Phage-258]
The “Anti-CD28 Fab signal” value of the first is higher: 2.17 for the first, 2.01 for the second.

What follows are binders tested against T2, anti-CD28 Fab (SEQ ID NOs: 202, 203) (assay: phage binding ELISA; biotinylated Fab on neutravidin plate;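 further: clonal phage supernatants added to Fab wells pretreated with CD28 antigen or with blocking buffer only, bound phage read out via HRP-linked anti-M13 antibody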).
T2 construct: biotinylated and captured on neutravidin coated plates in the phage ELISA
T2 sequence (VH, as listed by the source, chain 1 of 2): as the sequence (VH, as listed by the source, chain 1 of 2) above
T2 sequence (VL, as listed by the source, chain 2 of 2): as the sequence (VL, as listed by the source, chain 2 of 2) above
Description: as §1

Going from YCAGHSSEYIWKCL [Phage-362] to YCAGHSMEYMAKCL [Phage-435], the “Anti-CD28 Fab (SEQ ID NOs: 202, 203) signal” value falls from 1.82 to 1.71.

Compared with YCAGHSAEYMWKCL [Phage-433], YCAGHSAEYMAKCL [Phage-419] is higher in “Anti-CD28 Fab (SEQ ID NOs: 202, 203) signal” value: 1.71 for the first, 1.73 for the second.

YCAGHLEEYMDKCL [Phage-311] and YCDGHAPEYMKKCL [Phage-306] are the same in “Anti-CD28 Fab (SEQ ID NOs: 202, 203) signal” value: 1.9 for the first, 1.9 for the second.

Compared with YCDGHSQEYMWKCL [Phage-305], YCDGHSQEYMLKCL [Phage-392] is lower in “Anti-CD28 Fab (SEQ ID NOs: 202, 203) signal” value: 1.9 for the first, 1.76 for the second.

Compared with YCAGHLPEYLDKCL [Phage-430], YCDGHSSEYIVKCL [Phage-352] is higher in “Anti-CD28 Fab (SEQ ID NOs: 202, 203) signal” value: 1.71 for the first, 1.83 for the second.

Going from YCDGHSPEYMNKCL [Phage-399] to YCDGHSKEYMHKCL [Phage-307], the “Anti-CD28 Fab (SEQ ID NOs: 202, 203) signal” value rises from 1.75 to 1.9.

Compared with YCEGHAAEYMWKCL [Phage-353], YCEGHAQEYMSKCL [Phage-439] is lower in “Anti-CD28 Fab (SEQ ID NOs: 202, 203) signal” value: 1.83 for the first, 1.7 for the second.

First: YCDGHVEEYLYKCL [Phage-310]
Second: YCDGHIPEYLAKCL [Phage-391]
The “Anti-CD28 Fab (SEQ ID NOs: 202, 203) signal” value of the first is higher: 1.9 for the first, 1.76 for the second.

YCEGHLPEYMQKCL [Phage-404] and YCSGHLPEYMQKCL [Phage-403] are the same in “Anti-CD28 Fab (SEQ ID NOs: 202, 203) signal” value: 1.75 for the first, 1.75 for the second.

YCEGHLPDYMQKCL [Phage-412] and YCSGHLPEYMGKCL [Phage-417] are the same in “Anti-CD28 Fab (SEQ ID NOs: 202, 203) signal” value: 1.73 for the first, 1.73 for the second.

Going from YCDGHAEEYMSKCL [Phage-309] to YCEGHSAEYMLKCL [Phage-401], the “Anti-CD28 Fab (SEQ ID NOs: 202, 203) signal” value falls from 1.9 to 1.75.

Compared with YCSGHSAEYMLKCL [Phage-411], YCEGHSAEYIFKCL [Phage-354] is higher in “Anti-CD28 Fab (SEQ ID NOs: 202, 203) signal” value: 1.73 for the first, 1.83 for the second.

YCEGHSPMYMQKCM [Phage-355] and YCDGHLPMYFAKCM [Phage-351] are the same in “Anti-CD28 Fab (SEQ ID NOs: 202, 203) signal” value: 1.83 for the first, 1.83 for the second.

First: YCDGHLSEYMAKCL [Phage-424]
Second: YCDGHASEYMAKCL [Phage-407]
The “Anti-CD28 Fab (SEQ ID NOs: 202, 203) signal” value of the first is lower: 1.72 for the first, 1.75 for the second.

YCDGHEPQYLEKCL [Phage-308] was tested, and the “Anti-CD28 Fab (SEQ ID NOs: 202, 203) signal” value was 1.9.
